Data published in patent publication US20250121064A1 (CARSGEN LIFE SCIENCES, published 2025).

B1: hybridoma antibody AB1 (IgG2b-k) (antibody, V domains shown)
VH: EVQLQQSGPEVVKPGASMKISCKASGYSFTGYTMNWVKQSHGKNFEWIGLINPYNGGTSYNQKFKGKATLTVDKSSSTAYMELLSLTSEDSAVYYCTRGGFRAWFAFWGQGTLVTVSA
VL: DIQMTQSPSSLSASLGERVSLTCRASQDIGSNLNWLQQEPDGTIKRLIYATSILDSGVPKRFSGSRSGSDYSLTISSLESEDFVDYYCLQYATFPNTFGGGTKLEIKR
notes: Mouse hybridoma mIgG, IgG2b kappa
B2: hybridoma antibody AB2 (IgG3-k) (antibody, V domains shown)
VH: VVKLVESGGGLVQPGGSLKLSCAASGFTFSNYGMSWVRQTPDTRLELVATINSNGGNTYYPDSVKGRFTISRDNAKNTLYLQMSSLKSEDTAIYYCVRAYSLTMDYWGQGTSVTVSS
VL: DVVMTQTPLSLPVSLGDQASISCRSSQSLVHSNGNTYLHWYLQKPGQSPKLLIYKVSNRFSGVPDRFSGSGSGTDFTLKIIRVEAEDLGVYFCSQSTHVPPTFRAGTKLELKR
notes: Mouse hybridoma mIgG, IgG3 kappa

Target: T1, human GPRC5D on cells (human, UniProt Q9NZD1 1-345)
T1 construct: MM.1S and NCI-H929 cells express it endogenously; also called huGPRC5D; CHOK1-huGPRC5D
Experiment: flow cytometry on CHOK1-huGPRC5D cells

T1 sequence (Q9NZD1 whole entry): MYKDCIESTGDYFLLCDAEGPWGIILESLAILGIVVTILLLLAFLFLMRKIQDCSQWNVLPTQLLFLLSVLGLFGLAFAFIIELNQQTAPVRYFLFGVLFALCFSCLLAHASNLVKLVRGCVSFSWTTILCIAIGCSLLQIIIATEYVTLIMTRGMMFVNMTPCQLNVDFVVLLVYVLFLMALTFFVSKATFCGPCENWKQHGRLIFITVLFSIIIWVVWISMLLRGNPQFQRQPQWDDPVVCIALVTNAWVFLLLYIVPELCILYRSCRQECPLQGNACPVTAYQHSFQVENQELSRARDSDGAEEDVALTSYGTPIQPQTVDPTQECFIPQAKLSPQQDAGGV

Binder	EC50
B1	1.69 nM
B2	1.93 nM
